# Measurements taken from the supplement of paper PMC9170038.
# System: MS2 coat protein
# Test: apparent KD of MS2 coat protein; designed switch direction (-1 OFF switch, 1 ON switch): -1; higher = weaker reporter binding
# Procedure, shortened: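 Designed RNA switches were transcribed on Illumina chips by stalled E. coli RNA polymerase and titrated with SNAP-549-labelled MS2 coat protein from 0.7 or 1.5 nM, doubling to 3 µM. Step length ran from 0.8–1.5 h at the lowest concentration to 10–20 min at the highest. The apparent KD is the median over clusters for each design, from curve-fitted normalised cluster fluorescence.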
# [1] = Eterna round: R95, input ligand: FMN 200 uM
# [2] = Eterna round: R95, input ligand: microRNA oligo, concentration not stated
# [3] = Eterna round: R95, input ligand: none
# [4] = input ligand: microRNA oligo, concentration not stated
Sequence,apparent KD of MS2 coat protein (input ligand: FMN 200 uM) [nM],apparent KD of MS2 coat protein (input ligand: none) [nM],apparent KD of MS2 coat protein [2] [nM],also measured
"GAAUUAAUUAAUUAAUAAUACAUGAGGAUCACCCAUGUAGAUCCUACAUACAAUUUAAGUAGCUCGUCUUAUAAUUA [Stov1/1-A2] (Eterna round: R97, puzzle: Sensor, turn-off variant 1)",108,202,–,–
"GACACUCAUGUAAGUAUUUACAUGAGGAUCACCCAUGUACCACUAGAAGACUAGGGAACGAAACGAGCUGGCUGUCA [Eternabot (Original) Solution 6] (Eterna round: R97, puzzle: Sensor, turn-off variant 1)",1290,567,–,–
"GACAGCAUGCAGGAUAUACCUCCUCUGCGGACGGUAGAAGGGCGUACAUGAGGAUCACCCAUGUCACCCAUUUC [Eternabot (L2) Solution 61] (Eterna round: R97, puzzle: Exclusion 6)",13.9,14.4,–,–
"GACAUACAUGAGGAUCACCCAUGUAAGGAUAUACGCAGUAGACUCCGAGGGACCUGAAGUAGAAGGUACAGGGU [Eternabot (L2) Solution 72] (Eterna round: R97, puzzle: Exclusion 1)",103,34.5,–,–
"GACCCACAUGAGGAUCACCCAUGUGAGGAUAUCAUGCUUCGUAGUAAACUACGAAGUGUGAGAAGGCACAAUGG [Omei Ex1 C7] (Eterna round: R97, puzzle: Exclusion 1)",134,37.4,–,–
"GACCGGACGUGGUCAGGUAACAUGAGGAUCACCCAUGUAGGUCUAAGAACAAGCCUUUUGUACGCUCGUCUUAUAUU [JR_SV3TOV1_Sub060] (puzzle: Sensor v3, turn-off variant 1)",–,–,46.8,apparent KD of MS2 coat protein [1]: 46.1 nM; apparent KD of MS2 coat protein [3]: 55.8 nM
"GACCGGACGUGGUCAGGUAACAUGAGGAUCACCCAUGUAGGUCUAGGAACAAGCUUUUUGAAAGCUCGUCUUAUAAA [JR_SV3TOV1_Sub058] (puzzle: Sensor v3, turn-off variant 1)",–,–,33.6,apparent KD of MS2 coat protein [1]: 56.7 nM; apparent KD of MS2 coat protein [3]: 69.3 nM
"GACCUACAUGAGGAUCACCCAUGUGAGGAUAUAUUGUUAUUUAUAAUAUUUUUUAGUGGUAGAAGGCGCGUGAU [JR_Exc1_Sub018] (Eterna round: R97, puzzle: Exclusion 1)",17.9,20.2,–,–
"GACCUAUAGGUAGGAUAUCAUUGCGAUUAGCUAUGAGAAGGACCACAUGAGGAUCACCCAUGUCCUCCAAUUAACCAUUUGGUC [Fiskers ExNg1 - 4] (Eterna round: R96, puzzle: Exclusion NG 1)",239,86.7,–,apparent KD of MS2 coat protein [4]: 69.6 nM
"GACCUCACUGUAGGAUAUGACCGAUCCAGAGGAUCAGAAGGACAUGAGGAUCACCCAUGUGCGUGGAGGGAACGUAAGAAACAA [Eternabot solution 2] (Eterna round: R96, puzzle: Exclusion NG 1)",323,52.9,–,apparent KD of MS2 coat protein [4]: 29.4 nM
"GACCUCAGUCAGGAUAUAGAUAGCGAUAGCGAAUUAGAAGGGACCACAUGAGGAUCACCCAUGUUAGUAUCAUU [Eternabot (L2) Solution 10] (Eterna round: R97, puzzle: Exclusion 6)",38.9,34.2,–,–
"GACCUCCCUGUAAGGAUAUCCAUGCAUCAAAGCAAGGAGAAGGUACAUGAGGAUCACCCAUGUCACCCGCGUUA (Eterna round: R97, puzzle: Brourd's mod of Exclusion 4)",23.1,15.4,–,–
"GACCUCCCUGUAAGGAUAUCCAUGCAUCAAAGCAUGGAGAAGGUACAUGAGGAUCACCCAUGUCACCCGCGUUA (Eterna round: R97, puzzle: Brourd's mod of Exclusion 4)",20.7,15,–,–
"GACUCACAUGAGGAUCACCCAUGUUAGGAUAUAACCUCAUCAACAACGAUUUGGGAGGUUAGAAGGGAUGAUGG [Eternabot (L1) Solution 80] (Eterna round: R97, puzzle: Exclusion 1)",110,89,–,–
GAGAAACAUGAGGAUCACCCAUGUGAGGAUAUGAAAAAGAAAAGAAAAGAAAGAAGAAUCAGAAGGCACAAAGC [salish99-ex1_r3_091] (puzzle: Exclusion 1),–,–,32.4,apparent KD of MS2 coat protein [1]: 23.1 nM; apparent KD of MS2 coat protein [3]: 30 nM
"GAGAACUGAGGAUAUACAUGAGGAUCACCCAUGUUAAGAAGAAAGUAUAAAAGAUUAUGUAGAAGGCAGAGAGA [JR_Ex3_Sub068] (Eterna round: R97, puzzle: Exclusion 3)",29.8,33.3,–,–
GAGAAGGUAGGAUAUACGAAUAAAUAGGGUAGUAAUAAUACACAUGAGGAUCACCCAUGUAGAAGGACCAAUAG [Mat - Exclusion 2 - Mod of my Tesla design - D40] (puzzle: Exclusion 2),–,–,20.8,apparent KD of MS2 coat protein [1]: 42.5 nM; apparent KD of MS2 coat protein [3]: 24.9 nM
GAGGAACAUGAGGAUCACCCAUGUGAGGAUAUGCAUAGCGAGGUAGUAGAAGUUGAAUGCAGAAGGUACACGGA [JR_Exclu1_Sub076] (puzzle: Exclusion 1),–,–,27.5,–

Sequence,apparent KD of MS2 coat protein (input ligand: FMN 200 uM) [nM],apparent KD of MS2 coat protein (input ligand: none) [nM],apparent KD of MS2 coat protein [2] [nM],also measured
GAGGAACAUGAGGAUCACCCAUGUGAGGAUAUGCAUAGUGAGGUAGUAGACGUUGAAUGCAGAAGGUACACUGA [JR_Exclu1_Sub078] (puzzle: Exclusion 1),–,–,35.7,–
"GAGUCACAUGAGGAUCACCCAUGUGAGGAUAUCAUGCUUCGUAGUAAACUACGAAGUGUGAGAAGGCACAAUGG [Omei Ex1 C8] (Eterna round: R97, puzzle: Exclusion 1)",126,68.6,–,–
"GAGUCCUUGGUGAGGAUAUGGCGAGGAGCACUUGUCCAGAAGGCACAUGAGGAUCACCCAUGUUCUAGUAAUUG [Eternabot (L2) Solution 75] (Eterna round: R97, puzzle: Brourd's mod of Exclusion 4)",77.2,30.2,–,–
GAGUGACAUGAGGAUCACCCAUGUGAGGAUAUCGGACGGACCAAAUUAACAACAACCGCGAGAAGGCACAUCGG [Exclusion 1 V20] (puzzle: Exclusion 1),–,–,112,–
GAGUGACAUGAGGAUCACCCAUGUGAGGAUAUCGGACGGACCAAAUUAACAACCACCGCGAGAAGGCACAUCGG [Exclusion 1 V21] (puzzle: Exclusion 1),–,–,98.9,apparent KD of MS2 coat protein [1]: 58.4 nM; apparent KD of MS2 coat protein [3]: 107 nM
"GAGUGGUGAGGAUAUACAUGAGGAUCACCCAUGUGCUUCAGCUAGGAGACUAGCAUUGGUAGAAGGCAUUACUC [Mod of lroppy 8 - Jieux - Exclusion 3] (Eterna round: R97, puzzle: Exclusion 3)",102,33.6,–,–
"GAGUUAACAUGAGGAAUAUACAUGAGGAUCACCCAUGUUAACAAAACUUUUGCUCGUCUUAUAACAACAAUUAACUC [Alarm 2 - Jieux - Sensor, turn-off variant 1] (Eterna round: R97, puzzle: Sensor, turn-off variant 1)",347,133,–,–
GAUACACAUGAGGAUCACCCAUGUGAGGAUAUGAUACUAUGUACUUCGGUACAUAGUAUCAGAAGGCACAUUGA [Ex1-3: 44] (puzzle: Exclusion 1),–,–,61.2,–
GAUACCCAAGUCAGGAUAUCGGGAUACGAAAGUCACGAGAAGGGACAUGAGGAUCACCCAUGUAAAUAAAUAAA [Arege] (puzzle: Brourd's mod of Exclusion 4),–,–,31.1,apparent KD of MS2 coat protein [1]: 62.7 nM; apparent KD of MS2 coat protein [3]: 33.2 nM
GAUAGACAUGAGGAUCACCCAUGUGAGGAUAUGCGUACGUUGUCAGUAGGCGACGUGCGCAGAAGGCGCAAGUU [Mat - Mod of JL D91] (puzzle: Exclusion 1),–,–,61.8,–
"GAUAGGACGUGGUCAGGUAACAUGAGGAUCACCCAUGUAGGUCUAGGAACAAGCUUUUUGAAAGCUCGUCUUAUAAA [JR_SV3TOV1_Sub056] (puzzle: Sensor v3, turn-off variant 1)",–,–,18.9,apparent KD of MS2 coat protein [1]: 17.4 nM; apparent KD of MS2 coat protein [3]: 21.2 nM
"GAUAUGUAAGGAUAUCUAGAAACGAGCGCAGGCUCAAGAAAAGAGAAGGUACAUGAGGAUCACCCAUGUUCCUG [EX4 A.13] (Eterna round: R97, puzzle: Exclusion 4)",21.1,17.9,–,–
GAUCAACAUGAGGAUCACCCAUGUGAGGAUAUGAUACUAUGUACUUCGGUACAUAGUAUCAGAAGGCAUAUUGA [Ex1-3: 41] (puzzle: Exclusion 1),–,–,50.7,–
GAUCAGCUUGUGAGGAUAUCCGGGCAUAAAGGCUAGGAGAAGGUACAUGAGGAUCACCCAUGUAGAGUCCUGGG [Bisoraxe] (puzzle: Brourd's mod of Exclusion 4),–,–,41.2,–
"GAUCAUGCAGGAUAUACAUGGAACAUGAAAUCAUGAAUUUCACAUGAGGAUCACCCAUGUAGAAGGGCAUGAUC [Omei Ex2 A15] (Eterna round: R97, puzzle: Exclusion 2)",23.1,24.9,–,–
"GAUCUACAUGAGGAUCACCCAUGUAAGGAUAUCUACAUUGAAGCCUCGGCUUCAAUGUAGAGAAGGUACAAUUA [E1/10-B2] (Eterna round: R97, puzzle: Exclusion 1)",31.5,32.4,–,–
"GAUCUACAUGAGGAUCACCCAUGUAAGGAUAUUGAGUACUCGAAUGGAGAGCAAGGAUCAAGAAGGUGCAAUAU [Eternabot (L1) Solution 79] (Eterna round: R97, puzzle: Exclusion 1)",18.8,23.1,–,–
GAUGUUCUGGUCAGGAUAUGCAUCCGUCGGCCGGAGCAGAAGGGACAUGAGGAUCACCCAUGUGCGGGUACAAA [Onvegeor] (puzzle: Brourd's mod of Exclusion 4),–,–,38.4,–
